target: HLA-A2.1 (as the chimeric class I molecule A2.1/K^b on Jurkat A2.1/K^b cells) (human; mouse), A*02:0; assay: cell-based or functional assay

| Substance | inhibition of release of serine esterase from CTL line 219 [%] |
| --- | --- |
| peptide 799.02 (HBenv194-213) (from UniProt P03138 194-213) | > 25 |
| peptide 802.01 (HBc11-27) (from UniProt P03146 11-27) | > 25 |
| peptide 802.06 (HBc162-176) (from UniProt P03146 162-176) | > 25 |
| peptide 800.05 (HBenv63-77) (from UniProt P03138 63-77) | > 25 |
| peptide 799.04 (HBenv234-253) (from UniProt P03138 234-253) | > 25 |
| peptide 801.02 (HBenv141-157) (from UniProt P03138 141-157) | > 25 |
| peptide 799.09 (HBenv329-348) | > 25 |
| peptide 800.04 (HBenv47-63) (from UniProt P03138 47-63) | > 25 |
| peptide 799.10 (HBenv349-368) | > 25 |
| peptide 802.03 (HBc91-110) | > 25 |
| peptide 799.05 (HBenv246-265) (from UniProt P03138 246-265) | > 25 |
| peptide 802.04 (HBc111-125) (from UniProt P03146 111-125) | > 25 |
| peptide 799.08 (HBenv309-328) | > 25 |
